Experimental data reported in the supplement of paper PMC10065799, “High-throughput profiling of sequence recognition by tyrosine kinases and SH2 domains using bacterial peptide display” (eLife, 2023).

Assays:
Hck = Hck (UniProt P08631); assay: phosphorylation enrichment, bacterial display (enrichment ratio); higher = better substrate or ligand; peptides without Tyr show the background
MERTK = MERTK (UniProt Q12866); assay: as above
FGFR3 = FGFR3 (UniProt P22607); assay: as above
Fes = Fes (UniProt P07332); assay: as above
Fes, sequence (P07332 whole entry, looked up): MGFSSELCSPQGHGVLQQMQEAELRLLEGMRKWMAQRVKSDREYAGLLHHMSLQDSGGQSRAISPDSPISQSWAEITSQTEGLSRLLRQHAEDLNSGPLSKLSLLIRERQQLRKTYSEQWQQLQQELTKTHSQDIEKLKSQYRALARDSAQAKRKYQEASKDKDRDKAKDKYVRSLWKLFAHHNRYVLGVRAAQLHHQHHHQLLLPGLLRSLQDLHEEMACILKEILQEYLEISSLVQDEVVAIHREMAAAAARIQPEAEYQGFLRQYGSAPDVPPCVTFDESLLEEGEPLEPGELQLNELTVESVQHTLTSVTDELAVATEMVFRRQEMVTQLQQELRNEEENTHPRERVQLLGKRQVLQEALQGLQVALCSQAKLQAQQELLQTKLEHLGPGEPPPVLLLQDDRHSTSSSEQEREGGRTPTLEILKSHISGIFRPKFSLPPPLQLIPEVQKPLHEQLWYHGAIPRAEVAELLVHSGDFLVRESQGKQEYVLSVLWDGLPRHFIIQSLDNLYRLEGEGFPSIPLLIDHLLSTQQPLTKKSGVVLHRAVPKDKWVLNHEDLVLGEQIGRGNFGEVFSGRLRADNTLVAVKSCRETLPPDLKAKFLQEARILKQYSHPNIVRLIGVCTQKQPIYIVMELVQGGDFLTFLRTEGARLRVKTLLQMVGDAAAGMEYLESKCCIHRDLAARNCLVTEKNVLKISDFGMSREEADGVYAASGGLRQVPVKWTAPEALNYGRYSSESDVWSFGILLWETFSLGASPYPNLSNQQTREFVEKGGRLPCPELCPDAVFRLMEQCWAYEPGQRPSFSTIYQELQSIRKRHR

Fer (mouse) = assay: as above
FGFR1 = FGFR1 (UniProt P11362); assay: as above
c-Abl (mouse) = assay: as above
AncSZ = assay: as above
c-Src = assay: as above
EPHB2 = EPHB2 (UniProt P29323); assay: as above
Jak2 = Jak2 (UniProt O60674); assay: as above
Jak2, sequence (O60674 whole entry, looked up): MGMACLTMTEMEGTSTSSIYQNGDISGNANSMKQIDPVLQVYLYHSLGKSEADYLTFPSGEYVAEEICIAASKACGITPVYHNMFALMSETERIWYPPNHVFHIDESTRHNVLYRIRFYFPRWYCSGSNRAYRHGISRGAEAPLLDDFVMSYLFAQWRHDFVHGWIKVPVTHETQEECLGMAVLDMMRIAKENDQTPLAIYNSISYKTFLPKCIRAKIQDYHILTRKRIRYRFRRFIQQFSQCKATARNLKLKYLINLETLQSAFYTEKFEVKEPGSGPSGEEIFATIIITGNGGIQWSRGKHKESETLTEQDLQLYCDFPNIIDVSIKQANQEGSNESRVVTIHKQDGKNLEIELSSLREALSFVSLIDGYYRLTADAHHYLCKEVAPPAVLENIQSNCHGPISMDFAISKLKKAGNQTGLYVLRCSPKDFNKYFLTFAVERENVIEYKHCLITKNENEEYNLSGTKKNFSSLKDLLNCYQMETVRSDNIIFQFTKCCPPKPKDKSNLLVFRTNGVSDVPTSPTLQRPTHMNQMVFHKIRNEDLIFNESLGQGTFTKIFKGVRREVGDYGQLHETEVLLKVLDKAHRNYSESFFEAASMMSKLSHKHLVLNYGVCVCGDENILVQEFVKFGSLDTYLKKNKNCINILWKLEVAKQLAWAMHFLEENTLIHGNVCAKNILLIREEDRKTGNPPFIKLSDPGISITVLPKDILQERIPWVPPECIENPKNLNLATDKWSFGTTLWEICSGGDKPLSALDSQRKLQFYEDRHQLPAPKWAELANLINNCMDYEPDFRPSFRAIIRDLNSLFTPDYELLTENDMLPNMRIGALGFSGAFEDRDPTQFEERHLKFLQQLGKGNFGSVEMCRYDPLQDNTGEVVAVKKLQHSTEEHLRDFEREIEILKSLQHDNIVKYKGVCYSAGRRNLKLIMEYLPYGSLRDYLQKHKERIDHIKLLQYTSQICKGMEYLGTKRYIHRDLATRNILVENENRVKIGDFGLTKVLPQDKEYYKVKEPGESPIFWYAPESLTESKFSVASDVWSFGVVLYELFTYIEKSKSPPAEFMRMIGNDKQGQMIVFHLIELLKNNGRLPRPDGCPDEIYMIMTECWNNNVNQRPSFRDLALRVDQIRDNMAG

EPHB1 = EPHB1 (UniProt P54762); assay: as above
EPHB1, sequence (P54762 whole entry, looked up): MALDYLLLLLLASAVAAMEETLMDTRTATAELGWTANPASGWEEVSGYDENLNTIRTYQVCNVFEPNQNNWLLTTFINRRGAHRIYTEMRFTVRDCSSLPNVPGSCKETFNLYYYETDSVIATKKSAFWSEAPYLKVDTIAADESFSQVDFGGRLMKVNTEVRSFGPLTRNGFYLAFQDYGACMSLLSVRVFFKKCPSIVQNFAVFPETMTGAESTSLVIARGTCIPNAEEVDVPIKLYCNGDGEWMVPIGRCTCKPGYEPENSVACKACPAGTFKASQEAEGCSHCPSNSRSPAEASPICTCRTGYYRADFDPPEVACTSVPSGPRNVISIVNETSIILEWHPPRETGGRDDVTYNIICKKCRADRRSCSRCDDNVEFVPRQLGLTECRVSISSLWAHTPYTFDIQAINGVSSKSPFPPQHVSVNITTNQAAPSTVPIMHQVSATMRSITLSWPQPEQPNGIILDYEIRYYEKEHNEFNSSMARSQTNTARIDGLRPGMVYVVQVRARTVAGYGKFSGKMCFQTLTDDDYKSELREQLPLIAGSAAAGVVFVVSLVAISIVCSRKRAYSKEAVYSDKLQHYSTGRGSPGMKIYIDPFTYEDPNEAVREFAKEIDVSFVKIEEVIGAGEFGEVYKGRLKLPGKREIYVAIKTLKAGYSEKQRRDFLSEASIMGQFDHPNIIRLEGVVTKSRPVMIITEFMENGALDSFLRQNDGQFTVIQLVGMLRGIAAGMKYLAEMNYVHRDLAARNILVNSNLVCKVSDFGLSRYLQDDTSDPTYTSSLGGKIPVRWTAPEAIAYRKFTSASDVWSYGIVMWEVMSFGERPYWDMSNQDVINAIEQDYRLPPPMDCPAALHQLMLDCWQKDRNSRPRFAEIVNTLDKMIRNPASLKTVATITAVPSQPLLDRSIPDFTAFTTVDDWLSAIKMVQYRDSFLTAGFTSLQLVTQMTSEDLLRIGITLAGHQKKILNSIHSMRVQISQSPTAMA

Fyn = Fyn (UniProt P06241); assay: as above
SHP2-C SH2 = assay: SH2 binding enrichment of the phosphorylated peptide, bacterial display (enrichment ratio); higher = better substrate or ligand; peptides without Tyr show the background
Grb2 SH2 = Grb2 SH2 (UniProt P62993); assay: as above
c-Src SH2 = assay: as above
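Wherever SH2 binding enrichment of the phosphorylated peptide, bacterial display is given: peptide library displayed on the E. coli surface as eCPX fusions, selected cells deep-sequenced, score is each peptide's frequency after selection divided by its frequency in the input.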
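Wherever phosphorylation enrichment, bacterial display is given: 11-residue human phosphosite peptides and single-mutation variants displayed on the E. coli surface, counted by deep sequencing, each peptide's frequency after selection divided by its frequency in the unselected input library; frequency after pTyr selection over input frequency; kinase dosed for 20-30% of maximal phosphorylation in three min.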

MERTK, sequence (Q12866 whole entry, looked up): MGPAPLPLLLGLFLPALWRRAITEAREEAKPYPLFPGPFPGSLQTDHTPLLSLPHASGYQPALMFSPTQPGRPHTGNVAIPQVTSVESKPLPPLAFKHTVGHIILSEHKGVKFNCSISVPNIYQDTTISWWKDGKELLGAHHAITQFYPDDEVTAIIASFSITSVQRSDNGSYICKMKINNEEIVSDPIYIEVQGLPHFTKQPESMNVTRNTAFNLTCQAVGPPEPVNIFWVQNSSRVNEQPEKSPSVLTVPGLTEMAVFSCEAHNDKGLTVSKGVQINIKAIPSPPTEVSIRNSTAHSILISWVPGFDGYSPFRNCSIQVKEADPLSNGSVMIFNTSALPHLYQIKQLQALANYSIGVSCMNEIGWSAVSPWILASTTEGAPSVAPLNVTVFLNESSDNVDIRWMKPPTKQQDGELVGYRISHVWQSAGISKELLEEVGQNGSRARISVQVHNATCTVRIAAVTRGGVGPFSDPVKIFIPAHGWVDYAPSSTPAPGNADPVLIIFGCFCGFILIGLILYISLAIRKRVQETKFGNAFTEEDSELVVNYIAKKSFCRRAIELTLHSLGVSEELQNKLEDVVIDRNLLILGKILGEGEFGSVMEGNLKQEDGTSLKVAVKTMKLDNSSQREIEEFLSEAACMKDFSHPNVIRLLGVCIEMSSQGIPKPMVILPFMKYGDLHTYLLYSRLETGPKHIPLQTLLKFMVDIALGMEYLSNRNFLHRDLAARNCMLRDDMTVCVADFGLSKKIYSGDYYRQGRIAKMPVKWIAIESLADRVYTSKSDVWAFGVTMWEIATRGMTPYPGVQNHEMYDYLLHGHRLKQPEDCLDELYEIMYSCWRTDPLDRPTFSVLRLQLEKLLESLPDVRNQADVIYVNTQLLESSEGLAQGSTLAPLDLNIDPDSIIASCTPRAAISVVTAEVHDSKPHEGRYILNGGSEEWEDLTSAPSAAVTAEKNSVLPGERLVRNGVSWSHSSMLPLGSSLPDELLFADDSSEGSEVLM
FGFR3, sequence (P22607 whole entry, looked up): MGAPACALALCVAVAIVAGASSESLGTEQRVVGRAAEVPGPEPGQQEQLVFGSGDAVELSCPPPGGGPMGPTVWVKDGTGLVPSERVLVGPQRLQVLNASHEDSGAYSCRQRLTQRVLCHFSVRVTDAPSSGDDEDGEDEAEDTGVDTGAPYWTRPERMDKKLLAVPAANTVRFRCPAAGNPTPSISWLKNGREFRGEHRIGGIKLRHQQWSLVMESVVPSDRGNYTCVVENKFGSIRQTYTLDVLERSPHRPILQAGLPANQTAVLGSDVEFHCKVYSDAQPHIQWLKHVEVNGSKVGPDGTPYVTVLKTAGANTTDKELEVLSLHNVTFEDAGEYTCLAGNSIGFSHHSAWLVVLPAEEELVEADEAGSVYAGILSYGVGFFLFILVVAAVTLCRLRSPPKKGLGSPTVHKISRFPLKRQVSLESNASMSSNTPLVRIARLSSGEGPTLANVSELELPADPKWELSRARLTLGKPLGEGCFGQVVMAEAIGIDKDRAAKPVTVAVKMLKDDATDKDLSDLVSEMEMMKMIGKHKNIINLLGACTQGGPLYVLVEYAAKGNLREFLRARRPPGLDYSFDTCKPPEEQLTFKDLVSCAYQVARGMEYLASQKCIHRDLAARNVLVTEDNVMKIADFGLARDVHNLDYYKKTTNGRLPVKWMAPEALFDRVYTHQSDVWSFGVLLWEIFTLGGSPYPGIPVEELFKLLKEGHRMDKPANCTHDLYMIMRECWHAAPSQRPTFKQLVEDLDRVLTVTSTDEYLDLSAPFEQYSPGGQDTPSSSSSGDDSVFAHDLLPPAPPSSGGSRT

| SH2 binding enrichment (SHP2-C SH2) | SH2 binding enrichment (Grb2 SH2) | SH2 binding enrichment (c-Src SH2) | Sequence | phosphorylation enrichment (Hck) | phosphorylation enrichment (MERTK) | phosphorylation enrichment (FGFR3) | phosphorylation enrichment (Fes) | phosphorylation enrichment (Fer (mouse)) | phosphorylation enrichment (FGFR1) | phosphorylation enrichment (c-Abl (mouse)) | phosphorylation enrichment (AncSZ) | phosphorylation enrichment (c-Src) | phosphorylation enrichment (EPHB2) | phosphorylation enrichment (Jak2) | phosphorylation enrichment (EPHB1) | phosphorylation enrichment (Fyn) |
| --- | --- | --- | --- | --- | --- | --- | --- | --- | --- | --- | --- | --- | --- | --- | --- | --- |
| 1.03 | 1.13 | 1.51 | KRYRIYHLAIS [BRCA2_Y3009_T3013I] | 0.446 | 0.62 | 0.464 | 0.68 | 0.406 | 0.599 | 0.449 | 0.535 | 0.459 | 0.358 | 0.604 | 0.37 | 0.343 |
| 0.581 | 1.1 | 1.02 | KSAAIYNPVIY [RHO_Y301] | 8.17 | 3.42 | 1.25 | 0.72 | 15.4 | 1.41 | 0.727 | 0.758 | 6.12 | 0.744 | 0.573 | 0.805 | 7.54 |
| 0.68 | 0.697 | 0.467 | KSEMSYIDGEK [SORBS1_Y485] | 0.469 | 0.479 | 0.592 | 0.848 | 0.493 | 0.659 | 0.586 | 0.899 | 0.449 | 0.999 | 0.736 | 0.72 | 0.502 |
| 0.573 | 0.762 | 0.473 | KTDKKYLMIEE [BAG3_Y451] | 0.516 | 0.424 | 0.746 | 1.11 | 0.647 | 0.463 | 0.807 | 0.867 | 0.532 | 0.635 | 0.96 | 0.436 | 0.477 |
| 0.91 | 0.829 | 0.463 | KTGNIYRTEYG [MRPL3_Y265_M261T] | 0.496 | 0.425 | 0.592 | 0.633 | 0.629 | 0.464 | 0.441 | 0.555 | 0.424 | 0.421 | 0.414 | 0.451 | 0.488 |
| 0.734 | 0.851 | 0.57 | KVALVYGQMNE [ATP5F1B_Y269] | 1.05 | 0.38 | 0.606 | 1.13 | 0.525 | 0.443 | 0.65 | 0.785 | 1.97 | 0.495 | 0.769 | 0.446 | 1.47 |
| 0.566 | 0.804 | 0.52 | KVDKEYEVHVR [GHR_Y226_R229H] | 0.497 | 0.416 | 0.555 | 0.956 | 0.498 | 0.474 | 0.576 | 0.934 | 0.444 | 0.548 | 0.725 | 0.68 | 0.485 |
| 0.526 | 0.778 | 0.447 | KVGPGSLGSGG [RET_Y826_Y826S] | 0.323 | 0.3 | 0.366 | 0.489 | 0.293 | 0.308 | 0.482 | 0.4 | 0.374 | 0.353 | 0.466 | 0.29 | 0.352 |
